Data reported in patent US20250339531A1, “DUX4 POLYPEPTIDES AND NUCLEIC ACIDS FOR TREATING INFLAMMATORY AND AUTOIMMUNE CONDITIONS” (Fred Hutchinson Cancer Center, priority 2021, published 2025).

B1: O95782 (protein, UniProt O95782 1-977, looked up)
chain: MPAVSKGDGMRGLAVFISDIRNCKSKEAEIKRINKELANIRSKFKGDKALDGYSKKKYVCKLLFIFLLGHDIDFGHMEAVNLLSSNKYTEKQIGYLFISVLVNSNSELIRLINNAIKNDLASRNPTFMCLALHCIANVGSREMGEAFAADIPRILVAGDSMDSVKQSAALCLLRLYKASPDLVPMGEWTARVVHLLNDQHMGVVTAAVSLITCLCKKNPDDFKTCVSLAVSRLSRIVSSASTDLQDYTYYFVPAPWLSVKLLRLLQCYPPPEDAAVKGRLVECLETVLNKAQEPPKSKKVQHSNAKNAILFETISLIIHYDSEPNLLVRACNQLGQFLQHRETNLRYLALESMCTLASSEFSHEAVKTHIDTVINALKTERDVSVRQRAADLLYAMCDRSNAKQIVSEMLRYLETADYAIREEIVLKVAILAEKYAVDYSWYVDTILNLIRIAGDYVSEEVWYRVLQIVTNRDDVQGYAAKTVFEALQAPACHENMVKVGGYILGEFGNLIAGDPRSSPPVQFSLLHSKFHLCSVATRALLLSTYIKFINLFPETKATIQGVLRAGSQLRNADVELQQRAVEYLTLSSVASTDVLATVLEEMPPFPERESSILAKLKRKKGPGAGSALDDGRRDPSSNDINGGMEPTPSTVSTPSPSADLLGLRAAPPPAAPPASAGAGNLLVDVFDGPAAQPSLGPTPEEAFLSELEPPAPESPMALLADPAPAADPGPEDIGPPIPEADELLNKFVCKNNGVLFENQLLQIGVKSEFRQNLGRMYLFYGNKTSVQFQNFSPTVVHPGDLQTQLAVQTKRVAAQVDGGAQVQQVLNIECLRDFLTPPLLSVRFRYGGAPQALTLKLPVTINKFFQPTEMAAQDFFQRWKQLSLPQQEAQKIFKANHPMDAEVTKAKLLGFGSALLDNVDPNPENFVGAGIIQTKALQVGCLLRLEPNAQAQMYRLTLRTSKEPVSRHLCELLAQQF
modifications: full-length
B2: P13674 (protein, UniProt P13674 1-534, looked up)
chain: MIWYILIIGILLPQSLAHPGFFTSIGQMTDLIHTEKDLVTSLKDYIKAEEDKLEQIKKWAEKLDRLTSTATKDPEGFVGHPVNAFKLMKRLNTEWSELENLVLKDMSDGFISNLTIQRQYFPNDEDQVGAAKALLRLQDTYNLDTDTISKGNLPGVKHKSFLTAEDCFELGKVAYTEADYYHTELWMEQALRQLDEGEISTIDKVSVLDYLSYAVYQQGDLDKALLLTKKLLELDPEHQRANGNLKYFEYIMAKEKDVNKSASDDQSDQKTTPKKKGVAVDYLPERQKYEMLCRGEGIKMTPRRQKKLFCRYHDGNRNPKFILAPAKQEDEWDKPRIIRFHDIISDAEIEIVKDLAKPRLRRATISNPITGDLETVHYRISKSAWLSGYENPVVSRINMRIQDLTGLDVSTAEELQVANYGVGGQYEPHFDFARKDEPDAFKELGTGNRIATWLFYMSDVSAGGATVFPEVGASVWPKKGTAVFWYNLFASGEGDYSTRHAACPVLVGNKWVSNKWLHERGQEFRRPCTLSELE
modifications: full-length
B3: P04843 (protein, UniProt P04843 1-607, looked up)
chain: MEAPAAGLFLLLLLGTWAPAPGSASSEAPPLINEDVKRTVDLSSHLAKVTAEVVLAHLGGGSTSRATSFLLALEPELEARLAHLGVQVKGEDEEENNLEVRETKIKGKSGRFFTVKLPVALDPGAKISVIVETVYTHVLHPYPTQITQSEKQFVVFEGNHYFYSPYPTKTQTMRVKLASRNVESYTKLGNPTRSEDLLDYGPFRDVPAYSQDTFKVHYENNSPFLTITSMTRVIEVSHWGNIAVEENVDLKHTGAVLKGPFSRYDYQRQPDSGISSIRSFKTILPAAAQDVYYRDEIGNVSTSHLLILDDSVEMEIRPRFPLFGGWKTHYIVGYNLPSYEYLYNLGDQYALKMRFVDHVFDEQVIDSLTVKIILPEGAKNIEIDSPYEISRAPDELHYTYLDTFGRPVIVAYKKNLVEQHIQDIVVHYTFNKVLMLQEPLLVVAAFYILFFTVIIYVRLDFSITKDPAAEARMKVACITEQVLTLVNKRIGLYRHFDETVNRYKQSRDISTLNSGKKSLETEHKALTSEIALLQSRLKTEGSDLCDRVSEMQKLDAQVKELVLKSAVEAERLVAGKLKKDTYIENEKLISGKRQELVTKIDHILDAL
modifications: full-length
B4: P50454 (protein, UniProt P50454 1-418, looked up)
chain: MRSLLLLSAFCLLEAALAAEVKKPAAAAAPGTAEKLSPKAATLAERSAGLAFSLYQAMAKDQAVENILVSPVVVASSLGLVSLGGKATTASQAKAVLSAEQLRDEEVHAGLGELLRSLSNSTARNVTWKLGSRLYGPSSVSFADDFVRSSKQHYNCEHSKINFRDKRSALQSINEWAAQTTDGKLPEVTKDVERTDGALLVNAMFFKPHWDEKFHHKMVDNRGFMVTRSYTVGVMMMHRTGLYNYYDDEKEKLQIVEMPLAHKLSSLIILMPHHVEPLERLEKLLTKEQLKIWMGKMQKKAVAISLPKGVVEVTHDLQKHLAGLGLTEAIDKNKADLSRMSGKKDLYLASVFHATAFELDTDGNPFDQDIYGREELRSPKLFYADHPFIFLVRDTQSGSLLFIGRLVRPKGDKMRDEL
modifications: full-length
B5: Q12797 (protein, UniProt Q12797 1-758, looked up)
chain: MAQRKNAKSSGNSSSSGSGSGSTSAGSSSPGARRETKHGGHKNGRKGGLSGTSFFTWFMVIALLGVWTSVAVVWFDLVDYEEVLGKLGIYDADGDGDFDVDDAKVLLGLKERSTSEPAVPPEEAEPHTEPEEQVPVEAEPQNIEDEAKEQIQSLLHEMVHAEHVEGEDLQQEDGPTGEPQQEDDEFLMATDVDDRFETLEPEVSHEETEHSYHVEETVSQDCNQDMEEMMSEQENPDSSEPVVEDERLHHDTDDVTYQVYEEQAVYEPLENEGIEITEVTAPPEDNPVEDSQVIVEEVSIFPVEEQQEVPPETNRKTDDPEQKAKVKKKKPKLLNKFDKTIKAELDAAEKLRKRGKIEEAVNAFKELVRKYPQSPRARYGKAQCEDDLAEKRRSNEVLRGAIETYQEVASLPDVPADLLKLSLKRRSDRQQFLGHMRGSLLTLQRLVQLFPNDTSLKNDLGVGYLLIGDNDNAKKVYEEVLSVTPNDGFAKVHYGFILKAQNKIAESIPYLKEGIESGDPGTDDGRFYFHLGDAMQRVGNKEAYKWYELGHKRGHFASVWQRSLYNVNGLKAQPWWTPKETGYTELVKSLERNWKLIRDEGLAVMDKAKGLFLPEDENLREKGDWSQFTLWQQGRRNENACKGAPKTCTLLEKFPETTGCRRGQIKYSIMHPGTHVWPHTGPTNCRLRMHLGLVIPKEGCKIRCANETKTWEEGKVLIFDDSFEHEVWQDASSFRLIFIVDVWHPELTPQQRRSLPAI
modifications: full-length
B6: RNH1 (protein)
chain: SLDIQSLDIQCEELSDARWAELLPLLQQCQVVRLDDCGLTEARCKDISSALRVNPALAELNLRSNELGDVGVHCVLQGLQTPSCKIQKLSLQNCCLTGAGCGVLSSTLRTLPTLQELHLSDNLLGDAGLQLLCEGLLDPQCRLEKLQLEYCSLSAASCEPLASVLRAKPDFKELTVSNNDINEAGVRVLCQGLKDSPCQLEALKLESCGVTSDNCRDLCGIVASKASLRELALGSNKLGDVGMAELCPGLLHPSSRLRTLWIWECGITAKGCGDLCRVLRAKESLKELSLAGNELGDEGARLLCETLLEPGCQLESLWVKSCSFTAACCSHFSSVLAQNRFLLELQISNNRLEDAGVRELCQGLGQPGSVLRVLWLADCDVSDSSCSSLAATLLANHSLRELDLSNNCLGDAGILQLVESVRQPGCLLEQLVLYDIYWSEEMEDRLQALEKDKPSLRVIS
B7: TRIM28 (protein)
chain: AASAAAASAAAASAASGSPGPGEGSAGGEKRSTAPSAAASASASAAASSPAGGGAEALELLEHCGVCRERLRPEREPRLLPCLHSACSACLGPAAPAAANSSGDGGAAGDGTVVDCPVCKQQCFSKDIVENYFMRDSGSKAATDAQDANQCCTSCEDNAPATSYCVECSEPLCETCVEAHQRVKYTKDHTVRSTGPAKSRDGERTVYCNVHKHEPLVLFCESCDTLTCRDCQLNAHKDHQYQFLEDAVRNQRKLLASLVKRLGDKHATLQKSTKEVRSSIRQVSDVQKRVQVDVKMAILQIMKELNKRGRVLVNDAQKVTEGQQERLERQHWTMTKIQKHQEHILRFASWALESDNNTALLLSKKLIYFQLHRALKMIVDPVEPHGEMKFQWDLNAWTKSAEAFGKIVAERPGTNSTGPAPMAPPRAPGPLSKQGSGSSQPMEVQEGYGFGSGDDPYSSAEPHVSGVKRSRSGEGEVSGLMRKVPRVSLERLDLDLTADSQPPVFKVFPGSTTEDYNLIVIERGAAAAATGQPGTAPAGTPGAPPLAGMAIVKEEETEAAIGAPPTATEGPETKPVLMALAEGPGAEGPRLASPSGSTSSGLEVVAPEGTSAPGGGPGTLDDSATICRVCQKPGDLVMCNQCEFCFHLDCHLPALQDVPGEEWSCSLCHVLPDLKEEDGSLSLDGADSTGVVAKLSPANQRKCERVLLALFCHEPCRPLHQLATDSTFSLDQPGGTLDLTLIRARLQEKLSPPYSSPQEFAQDVGRMFKQFNKLTEDKADVQSIIGLQRFFETRMNEAFGDTKFSAVLVEPPPMSLPGAGLSSQELSGGPGDGP

Test system: proteins that co-immunoprecipitated with DUX4-CTD constructs expressed in MB135 myoblasts
Experiment: LC-MS of proteins co-immunoprecipitated with DUX4-CTD (Table 1) and western validation
Format: binding, human
Parameters: key to 4. mL1dL2 + Dox + IFNG / 4. + IFNG mix / 4. longCTD + Dox + IFNG / 3. + IFNg + Dox longCTD / 3. + Dox longCTD / 3. + IFNG longCTD: peptide-spectrum matches (PSMs) per protein
Details: for 4. longCTD + Dox + IFNG: LC-MS counts of the listed protein co-immunoprecipitated with DUX4-CTD bait longCTD, experiment 4, Dox + IFNG; for 3. + Dox longCTD: experiment 3, Dox only; for 3. + IFNg + Dox longCTD: experiment 3, IFNg + Dox; for SUM of PSMS: sum over all samples; for 4. mL1dL2 + Dox + IFNG: LC-MS value per protein co-immunoprecipitated with DUX4-CTD construct mL1dL2 in MB135 myoblasts
Summary of the method: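 Two independent experiments compared uninduced, doxycycline and doxycycline+IFNG MB135iDUX4-CTD (plus MB135iDUX4mL1dL2) myoblasts. Anti-FLAG pulldowns (3 h, 4 °C) were eluted in LDS buffer for western validation or with FLAG peptide for trypsin digestion and Orbitrap LC-MS; hits needed ≥2 PSMs in both experiments, ranked by total PSMs.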

Molecule | 4. longCTD + Dox + IFNG | 3. + Dox longCTD (bait longCTD) | 3. + IFNg + Dox longCTD (bait longCTD) | SUM of PSMS | 3. + IFNG longCTD (bait longCTD, experiment 3, IFNG only, no doxycycline (bait at background level)) | 4. mL1dL2 + Dox + IFNG (kind of count not given) | 4. + IFNG mix (LC-MS value per protein co-immunoprecipitated from MB135 myoblasts, + IFNG mix sample (no Dox), kind of count not given)
B1 | 2 | 10 | 31 | 48 |  |  | 
B2 | 9 | 3 | 5 | 45 |  |  | 
B3 | 2 | 4 | 14 | 30 | 1 |  | 
B4 |  |  | 1 | 11 |  |  | 
B5 |  | 1 | 9 | 11 |  |  | 
B6 |  |  |  |  |  | 4 | 
B7 |  |  |  |  |  | 8 | 1
